Reference: patent CN112142841A (JIANGSU QUANXIN BIOMEDICAL CO LTD, dated 2020)

Key:
[1] = molecular target: T1, 人IL-17A蛋白 (Example 4, sandwich ELISA) (human, UniProt Q16552 24-155); experiment: sandwich ELISA: QX002N coated, human IL-17A 0-10 ng/ml, biotin-labelled second antibody for detection, SA-HRP
T1 construct: also called 重组人IL-17A蛋白标准品; recombinant human IL-17A protein standard
T1 sequence (looked up): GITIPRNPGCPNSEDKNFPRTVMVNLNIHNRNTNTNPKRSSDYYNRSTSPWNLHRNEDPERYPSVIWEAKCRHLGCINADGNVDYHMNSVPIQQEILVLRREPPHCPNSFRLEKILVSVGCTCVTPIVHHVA

[2] = molecular target: T2, 人IL-17A (His-tag，购自Novoprotein) (human, UniProt Q16552 24-155); experiment: ELISA: antibody coated, serially diluted His-tagged human IL-17A, anti-His-HRP detection
T2 construct: Bought His-tagged protein, detected with an HRP-labelled anti-His antibody; also called human IL-17A; hIL-17A; not shown: His-tag
T2 sequence (looked up): T1 sequence (looked up)

binding result [1]: binds
binding result [2]: binds
B1: 抗人IL-17A单克隆抗体 (anti-human IL-17A monoclonal antibody) (antibody, V domains shown)
VH: QSLEESGGDLVQPEGSLALTCKASGFDLSSYYYMCWVRQAPGKGLEWIACIHTGNGYPYYANWAKGRFTISKTSSTTVTLQLTSLTVADTATYFCARPVGGYDYAMDLWGPGTLVTVSS
VL: AYDMTQTPASVSAAVGGTVTINCQASEDISSQLSWYQQRPGQPPKLLIYKASTLASGVPSRFRGSGSGTQFTLTISGVQCADAATYYCQQSASYFNVANTFGGGTEVVVKG
notes: also called 第二抗体; 检测抗体
